Experimental data: patent publication US20250186597A1, “TARGETED IMMUNE ACTIVATION WITH IL-18 IMMUNOCYTOKINES” (BRIGHT PEAK THERAPEUTICS AG, priority 2023, published 2025)

Assays:
[1] = target: T1, human IL-18 Binding Protein (IL-18BP) (Homo sapiens, UniProt O95998); assay: IL-18 Binding Protein alphaLISA assay (Example 12); settings: human IL-18BP
T1 sequence (O95998 31-194): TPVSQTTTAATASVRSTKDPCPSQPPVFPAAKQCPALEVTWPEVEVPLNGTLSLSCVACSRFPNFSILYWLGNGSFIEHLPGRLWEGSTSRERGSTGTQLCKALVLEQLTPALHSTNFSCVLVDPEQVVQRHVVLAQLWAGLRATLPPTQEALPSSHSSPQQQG
Description: Wild type or modified IL-18 polypeptides samples were diluted at 5.6 μM in a solution of 1× alphaLISA Immunoassay Buffer provided in the alphaLISA IFNγ Detection kit and were diluted applying 3-fold serial dilutions down to […] in 384 deep well plates. A solution of 10 ng/ml of human IL-18BP-His was prepared with 1×alphaLISA Immunoassay Buffer. IL-18/IL-18BP complex formation was performed incubating 30 μl of IL-18BP solution to IL-18 sample titrations for 1 h at 20° C. IL-18BP standard was prediluted from stock solution supplied in alphaLISA IFNγ Detection kit at 100 ng/ml with 1×alphaLISA Buffer and titration prepared from applying 2-fold serial dilutions. The following solutions were prepared: a 50 μg/ml solution of anti-IL-18BP alphaLISA Acceptor beads, a 5 nM solution of biotinylated anti-IL18BP antibody and a 80 μg/ml light-protected solution of Streptavidin Donor beads in 1×alphaLISA Immunoassay Buffer. […]
5 μl of Biotinylated anti-IL-18BP antibody were added, followed by a short centrifugation step at 150 g, and incubated for 60 minutes at 20° C. under shaking at 750 rpm. […] AlphaLisa signal was then measured on an Enspire plate reader (Perkin Elmer) using 680 and 615 nm as excitation and emission wavelengths respectively. […]

[2] = system: parental PD-1negative NK-92 cells; assay: IFN gamma secretion assay in parental PD-1 negative NK-92 cells (Example 17); assay type: cell-based, human; settings: IFNγ secretion
Description: To show selectivity of the anti-PD1-IL18 immunocytokine (IC) for PD-1 positive cells, the NK-92 cell line was used to generate a PD-1 expressing cell line and furthermore, to measure IFN[…] release upon incubation with IL-18 variants and ICs.
On the day of experiment, parental PD-1negative and PD-1positive transduced cells were harvested and washed with PBS 1× and resuspended in medium (w/o IL-2) containing 1 ng/ml of recombinant human Interleukin-12 (SinoBiologicals, Cat #CT011-H08H). After counting, cells were seeded at 100 000 cells/well in a 384 well culture plate and incubated at 37° C./5% CO2. When indicated, cells were preincubated with anti-PD-1 antibody LZM-009 at 17 uM during 30 min at 37° C. […] The lowest concentration assessed was 0.8 fM.
After 16-20 h incubation at 37° C./5% CO2, 5 μl of supernatant were carefully transferred to a 384 microwell OptiPlate (Perkin Elmer; Cat #6007270) and Interferon-gamma (IFNγ) levels were measured using the Human IFNγ AlphaLISA Assay Kit (Perkin Elmer, Cat #AL217C). […] AlphaLISA signal was then measured on an Enspire plate reader (Perkin Elmer) using 680 and 615 nm as excitation and emission wavelengths respectively. Half maximal effective concentration (EC50) was calculated based on a variable slope, four parameter analysis using GraphPad PRISM software.

NK92 cells = assay: Cellular IL-18 Binding Protein resistance assay in NK92 cells (Example 13); assay type: cell-based, human; settings: IL-18BP-mediated inhibition of IFNγ secretion, IL-18 analyte 1 nM
Description: The NK cell line NK-92 derived from a patient with lymphoma (ATCC, Cat #CR^L-2407) was cultured in αMEM medium supplemented with 20% FCS-Glutamax, 25 μM B-mercaptoethanol, and 100 IU/ml of recombinant Human Interleukin-2 (IL-2). On the day of experiment, cells were harvested and washed with αMEM medium without IL-2. After counting, cells were seeded at 100 000 cells/well in a 384 well titer plate and incubated at 37° C./5% CO2. Sixteen 2-fold serial dilutions of Fc fused human IL-18 binding protein isoform a (IL-18BPa; R&D systems, Cat #119-BP) were prepared in αMEM medium—1 ng/ml IL-12 containing 2 nM of each IL-18 variants and were added to the NK-92 cells. Final IL-18 analytes concentration was 1 nM and final IL-18BPa concentrations ranged from to 566 nM down to 17 pM.
After 16-20 h incubation at 37° C./5% CO2, 5 μl of supernatant were carefully transferred to a 384 microwells OPTIplate (Perkin Elmer; Cat #6007270) and Interferon-gamma (IFNγ) levels measured using the Human IFNγ AlphaLISA Assay Kit (Perkin Elmer, Cat #AL217C). […] AlphaLisa signal was then measured on an Enspire plate reader (Perkin Elmer) using 680 and 615 nm as excitation and emission wavelengths respectively. Half maximal inhibitory concentration (IC50) was calculated based on a variable slope, four parameter analysis using GraphPad PRISM software.

Kd [1]: 24.6 nM | IC50 (NK92 cells): 488 nM
B1: SEQ ID NO: 30: IL-18 polypeptide: E6K, V11I, C38A, K53A, T63A, C76A, C127A (protein)
chain: YFGKLKSKLSIIRNLNDQVLFIDQGNRPLFEDMTDSDARDNAPRTIFIISMYADSQPRGMAVAISVKCEKISTLSAENKIISFKEMNPPDNIKDTKSDIIFFQRSVPGHDNKMQFESSSYEGYFLAAEKERDLFKLILKKEDELGDRSIMFTVQNED
EC50 [2]: 0.0024 nM
